Data on four molecules can be found in PMC12743552, “Key residues regulating von Willebrand factor A1/A2 interactions: insights from molecular dynamics simulations and experimental validation” (Research and Practice in Thrombosis and Haemostasis, 2025).

The term Kd denotes the free concentration of one partner at which half of the binding sites on the other are occupied at equilibrium, for simple one-to-one binding. The term koff denotes the first-order rate constant of dissociation. Usually kon stands for the rate constant with which the complex forms.

B1: VWF-A1 mutant A1_mut (D1323A/R1334A/Q1367A) (domain or fragment)
chain: QEPGGLVVPPTDAPVSPTTLYVEDISEPPLHDFYCSRLLDLVFLLDGSSRLSEAEFEVLKAFVVDMMERLRISQKWVRVAVVEYHAGSHAYIGLKDAKRPSELRRIASQVKYAGSQVASTSEVLKYTLFAIFSKIDRPEASRITLLLMASQEPQRMSRNFVRYVQGLKKKKVIVIPVGIGPHANLKQIRLIEKQAPENKAFVLSSVDELEQQRDEIVSYLCDLAPEAPPPTLPPD
notes: von Willebrand factor, A1 domain, residues Q1238-D1472, with D1323A, R1334A and Q1367A; source: HEK293F cells, culture medium collected, purified (Ni2+-Hi-Trap chelating column); not shown: His tag, N-terminal, kept
B2: VWF-A2 mutant A2_mut (V1546A/R1575A/E1598A) (domain or fragment)
chain: MAQVTVGPGLLGVSTLGPKRNSMVLDVAFVLEGSDKIGEADFNRSKEFMEEVIQRMDVGQDSIHVTVLQYSYMATVEYPFSEAQSKGDILQRVREIRYQGGNATNTGLALRYLSDHSFLVSQGDRAQAPNLVYMVTGNPASDEIKRLPGDIQVVPIGVGPNANVQELERIGWPNAPILIQDFETLPREAPDLVLQRCCSG
notes: von Willebrand factor, A2 domain, residues M1473-G1672, with V1546A, R1575A and E1598A; source: HEK293F cells, culture medium collected, purified (Ni2+-Hi-Trap chelating column); not shown: His tag, N-terminal, kept
B3: recombinant VWF-A2 (von Willebrand factor A2 domain, amino acids M1473-G1672), wild type (domain or fragment)
chain: B2 chain with A74V, A103R, A126E
modifications: biotinylated in the BLI assay (site not stated); not said to be biotinylated in the AFM assay
notes: von Willebrand factor, A2 domain, residues M1473-G1672; cloned from a full-length VWF plasmid (MiaoLingBio); Secreted into the medium of HEK293F cells; The discussion calls the host HEK293 cells; source: HEK293F cells, culture medium collected, purified (Ni2+-Hi-Trap chelating column); not shown: His tag, N-terminal, kept

Test [1] addresses von Willebrand factor A2 G1481-R1668 (Homo sapiens) (UniProt P04275). To be noted: cited from earlier work.
Test [2] has as its target B3. The test is described as follows: atomic force microscopy (adhesion frequency and rupture force); VWF-A2 (15 ug/mL) held on the cantilever tip and VWF-A1 or its variants (15 ug/mL) on polystyrene dishes, each through adsorbed mouse anti-His mAb; blocked with 2% BSA; approach-retraction speed 200 nm/s in 2% BSA; 100 contact cycles a point. To be noted: both partners purified.

The target of test [3] is T1, recombinant VWF-A1 (von Willebrand factor A1 domain, amino acids Q1238-D1472), wild type (UniProt P04275 1238-1472).
T1 construct: von Willebrand factor, A1 domain, residues Q1238-D1472; cloned from a full-length VWF plasmid (MiaoLingBio); Secreted into the medium of HEK293F cells; The tag is 6xHis to judge from the anti-6xHis antibody used for capture; also called WT A1; WT VWF-A1; source: HEK293F cells, culture medium collected, purified (Ni2+-Hi-Trap chelating column); not shown: His tag, N-terminal, kept
As to the kind of experiment: BLI; biotinylated A2 (10 ug/mL) immobilised on streptavidin biosensors, quenched with biocytin; A1 125-4000 nM in solution; Octet R8, 30 °C, 1000 rpm; PBS with 0.02% Tween-20 and 0.1% BSA; global fit to a 1:1 Langmuir model. Particulars: both partners purified. (In general: Biolayer interferometry detects binding as a change in optical thickness at a sensor tip.)

Test [4] concerns the target B1. Described as above. To be noted: both partners purified.

Residue numbers refer to the chain shown, from its start. Names may count otherwise.

On to “von Willebrand factor A1 A1 (from UniProt P04275)”, for which the Kd in test [1] is 0.0649 µM.
Turning to B1, in test [2], the adhesion frequency worked out at 14.5%, the average rupture force is 41.5 pN and the “central peak value (XC) of the rupture force distribution” value is 35 pN.
B2: in test [3], the Kd amounted to 4.2 µM, the koff came out at 0.046 s⁻¹ and the kon amounted to 11000 M⁻¹ s⁻¹.
For B3, in test [3], the Kd came out at 2.16 µM, the off-rate constant (koff) was 0.037 s⁻¹ and the kon was 17000 M⁻¹ s⁻¹. In test [4], this molecule had a Kd of 6.1 µM, a koff of 0.081 s⁻¹ and a kon of 13000 M⁻¹ s⁻¹.
